Data on 4 molecules can be found in PMC5801464, “Expanding Primary Metabolism Helps Generate the Metabolic Robustness To Facilitate Antibiotic Biosynthesis in Streptomyces” (mBio, 2018).

The kcat/Km is the turnover number divided by the Michaelis constant. In general, Vmax refers to the top rate of the reaction or transport when substrate is in excess. A word on the kcat: it is the number of substrate molecules converted per active site and unit of time at saturation.

Series [1] concerns the target T1, Pyk1 (Streptomyces coelicolor, UniProt Q9S2I9).
T1 construct: E. coli codon-optimized gene; E. coli Origami B host
T1 sequence (Q9S2I9 1-478): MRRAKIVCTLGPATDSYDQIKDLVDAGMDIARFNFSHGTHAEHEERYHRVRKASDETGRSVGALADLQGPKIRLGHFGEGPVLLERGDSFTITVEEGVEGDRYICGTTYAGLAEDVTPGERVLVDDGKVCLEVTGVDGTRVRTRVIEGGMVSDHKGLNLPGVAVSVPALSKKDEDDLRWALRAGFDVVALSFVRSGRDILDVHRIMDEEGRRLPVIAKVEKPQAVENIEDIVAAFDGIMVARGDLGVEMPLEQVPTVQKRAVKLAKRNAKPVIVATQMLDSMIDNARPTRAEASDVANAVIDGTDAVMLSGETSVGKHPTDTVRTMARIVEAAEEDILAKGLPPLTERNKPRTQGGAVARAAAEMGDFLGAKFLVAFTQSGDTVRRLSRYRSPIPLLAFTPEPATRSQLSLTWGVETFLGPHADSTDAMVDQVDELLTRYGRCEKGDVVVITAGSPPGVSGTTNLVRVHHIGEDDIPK
As to the kind of experiment: pyruvate kinase activity assay, purified enzyme. It is filed as biochemical. The note with it: activator.

Series [2] addresses T1, Pyk1. As to the kind of experiment: pyruvate kinase activity assay, purified enzyme, Hill or Michaelis-Menten fit. It is filed as biochemical. As to conditions: activator; PEP and ADP concentrations not told; read-out: No AMP / Pyk1. An excerpt:
pyruvate kinase activity assay, purified enzyme, Hill or Michaelis-Menten fit on Pyk1

In a further series the target is T2, Pyk2 (Streptomyces coelicolor, UniProt Q9L299).
T2 construct: native gene; E. coli Rosetta host
T2 sequence (Q9L299 1-476): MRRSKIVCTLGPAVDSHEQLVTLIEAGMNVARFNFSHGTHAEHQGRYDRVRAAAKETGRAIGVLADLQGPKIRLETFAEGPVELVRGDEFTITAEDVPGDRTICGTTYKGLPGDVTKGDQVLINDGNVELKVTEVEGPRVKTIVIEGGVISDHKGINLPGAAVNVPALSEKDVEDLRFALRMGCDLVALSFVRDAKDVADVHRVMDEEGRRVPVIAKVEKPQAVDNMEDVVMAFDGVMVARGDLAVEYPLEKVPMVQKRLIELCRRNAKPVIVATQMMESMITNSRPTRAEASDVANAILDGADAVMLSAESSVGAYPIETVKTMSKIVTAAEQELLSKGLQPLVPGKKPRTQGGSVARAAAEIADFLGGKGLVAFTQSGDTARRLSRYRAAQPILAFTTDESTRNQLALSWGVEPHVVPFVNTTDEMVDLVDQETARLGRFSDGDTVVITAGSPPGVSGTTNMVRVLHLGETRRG
The series is described as above. The format is biochemical. As to conditions: activator; PEP and ADP concentrations not told; read-out: No AMP / Pyk2. An excerpt: pyruvate kinase activity assay, purified enzyme, Hill or Michaelis-Menten fit on Pyk2

Substrate in series [3]: Nc1ncnc2c1ncn2[C@@H]1O[C@H](COP(=O)(O)OP(=O)(O)O)[C@@H](O)[C@H]1O
As to the kind of experiment: pyruvate kinase activity assay, purified enzyme, Michaelis-Menten fit. It is filed as biochemical, Streptomyces coelicolor. As to conditions: 5 mM PEP; no AMP; Michaelis-Menten-type kinetics. An excerpt:
pyruvate kinase activity assay, purified enzyme, Michaelis-Menten fit on Pyk2

Substrate in series [4]: C=C(OP(=O)(O)O)C(=O)O
The series is described as follows: pyruvate kinase activity assay, purified enzyme, Hill fit. As to conditions: 1.5 mM ADP; no AMP; cooperative, Hill coefficient 1.5. The format is biochemical, Streptomyces coelicolor. An excerpt:
pyruvate kinase activity assay, purified enzyme, Hill fit on Pyk2

Substrate in series [5]: Nc1ncnc2c1ncn2[C@@H]1O[C@H](COP(=O)(O)OP(=O)(O)O)[C@@H](O)[C@H]1O
The series is described as follows: pyruvate kinase activity assay, purified enzyme, Michaelis-Menten fit. It is filed as biochemical, Streptomyces coelicolor. As to conditions: 5 mM PEP; no AMP; Michaelis-Menten-type kinetics. An excerpt: pyruvate kinase activity assay, purified enzyme, Michaelis-Menten fit on Pyk1
The source holds these as a separate data set.

Substrate in series [6]: C=C(OP(=O)(O)O)C(=O)O
The series is described as follows: pyruvate kinase activity assay, purified enzyme, Hill fit. As to conditions: 1.5 mM ADP; no AMP; cooperative, Hill coefficient 3.7. The format is biochemical, Streptomyces coelicolor. An excerpt: pyruvate kinase activity assay, purified enzyme, Hill fit on Pyk1

Take `O=P(O)(O)OC[C@H]1OC(O)[C@H](O)[C@@H]1O` (stereo partly shown) [ribose-5-phosphate]: at Pyk1 [1], the “pyruvate kinase activity assay, purified enzyme” value is recorded as “Pyk1 was also shown to be highly stimulated by ribose-5-phosphate”.

`Nc1ncnc2c1ncn2[C@@H]1O[C@H](COP(=O)(O)O)[C@@H](O)[C@H]1O` [AMP]: the results for the EC50 at Pyk1 [2] and at Pyk2 were 10 µM and 3800 µM, respectively.

B1: Pyk2 (Streptomyces coelicolor A3(2)) (protein)
chain: T2 sequence (Q9L299 1-476)
notes: native gene; E. coli Rosetta host
Consider B1, for which, in series [3], the K0.5 was found to be 0.3 mM and the kcat/Km worked out at 145000 M⁻¹ s⁻¹. Moreover, in series [4], the K0.5 is given as 1.3 mM and the kcat/Km came out at 14000 M⁻¹ s⁻¹.

B2: Pyk1 (Streptomyces coelicolor A3(2)) (protein)
chain: T1 sequence (Q9S2I9 1-478)
notes: E. coli codon-optimized gene; E. coli Origami B host
Consider B2, for which, in series [5], the K0.5 is given as 0.6 mM and the kcat/Km was 1.59e+06 M⁻¹ s⁻¹. In addition, in series [6], the K0.5 is 3.5 mM, the Vmax stood at 14.1 µmol/min/mg, the kcat came to 350 s⁻¹ and the kcat/Km came to 100000 M⁻¹ s⁻¹.
